Experimental findings from the RNAGym collection of RNA variant scans (doi:10.7554/elife.80360) are described below.

B1: CPEB3 Ribozyme (parent)
chain: GGGGGCCACAGCAGAAGCGUUCACGUCGCGGCCCCUGUCAGAUUCUGGUGAAUCUGCGAAUUCUGCUGU

This data set covers variants of B1. Description: self-cleavage, relative activity (ratio to wild type); higher = more cleavage; co-transcriptional.
In the case of GGGGGCCACAGCAGCAGCGUUCACGUCGCGGCCCCUGUCAGAUUCUGGUGAAUCUGCGAAUUCUACUGU [A15C G65A], the self-cleavage came out at 0.43.
With GGGGGCCACAGCAGCAGCGUUCACGUCGCGGCCCCUAUCAGAUUCUGGUGAAUCUGCGAAUUCUGCUGU [A15C G37A] the figure was 0.196; with GGGGGCCACAGCAGCAGCGUUCACGUCGCGGCCCCUCUCAGAUUCUGGUGAAUCUGCGAAUUCUGCUGU [A15C G37C], 0.105.
With GGGGGCCACAGCAGCAGCGUUCACGUCGCGGCCCCUUUCAGAUUCUGGUGAAUCUGCGAAUUCUGCUGU [A15C G37U] the figure was 0.168; with GGGGGCCACAGCAGCAGCGUUCACGUCGCGGCCCCUGUCAGAUUCUGGUGAAUCUGCGAAUUGUGCUGU [A15C C63G], 0.921.
With GGGGGCCACAGCAGCAGCGUUCACAUCGCGGCCCCUGUCAGAUUCUGGUGAAUCUGCGAAUUCUGCUGU [A15C G25A], the self-cleavage was 0.127.
In the case of GGGGGCCACAGCAGCAGCGUUCACGUCGCGGCCCCUGUCAGAUUCUGGUGAAUCUGUGAAUUCUGCUGU [A15C C57U] it was 0.423.
With GGGGGCCACAGCAGCAGCGUUCACGUCGCGGCCCCUGUCAGAUUCUGUUGAAUCUGCGAAUUCUGCUGU [A15C G48U] the figure was 0.883; with GGGGGCCACAGCAGCAGCGUUCACGUCGCGGCCCCUGUCAGAUUCUGAUGAAUCUGCGAAUUCUGCUGU [A15C G48A], 0.935.
On to GGGGGCCACAGCAGCAGCGUUCACGUCGCGGCCCCUGUCAGAUUCUGCUGAAUCUGCGAAUUCUGCUGU [A15C G48C], for which the self-cleavage stood at 0.918.
In the case of GGGGGCCACAGCAGCAGCGUUCACGUCGCGGCCCCUGUCAGAUUCUGGUGAAUCUGCGAAUUCUGUUGU [A15C C66U] it was 0.725; in that of GGGGGCCACAGCAGCAGCGUUCACGUCGCGGCCCCUGUCAGAUUCUGGUGAAUCUGCGAAUUCUGAUGU [A15C C66A], 0.357.
In the case of GGGGGCCACAGCAGCAGCGUUCACGUCGCGGCCCCUGUUAGAUUCUGGUGAAUCUGCGAAUUCUGCUGU [A15C C39U] it was 0.535; in that of GGGGGCCACAGCAGCAGCGUUCACGUCGCGGCCCCUGUGAGAUUCUGGUGAAUCUGCGAAUUCUGCUGU [A15C C39G], 0.596.
GGGGGCCACAGCAGCAGCGUUCACGUCACGGCCCCUGUCAGAUUCUGGUGAAUCUGCGAAUUCUGCUGU [A15C G28A]: the self-cleavage was determined as 0.138.
With GGGGGCCACAGCAGCAGCGUUCACGUCUCGGCCCCUGUCAGAUUCUGGUGAAUCUGCGAAUUCUGCUGU [A15C G28U] the figure was 0.191; with GGGGGCCACAGCAGCAGCGUUCACGUCCCGGCCCCUGUCAGAUUCUGGUGAAUCUGCGAAUUCUGCUGU [A15C G28C], 0.146; with GGGGGCCACAGCAGCAGCGUUCACGUCGCGGCCCCUGUCAGAUUCUGGUCAAUCUGCGAAUUCUGCUGU [A15C G50C], 0.808.
Turning to GGGGGCCACAGCAGCAGCGUUCACGUCGCGGCCCCUGUCAGAUUCUGGUAAAUCUGCGAAUUCUGCUGU [A15C G50A], the self-cleavage was determined as 0.933.
With GGGGGCCACAGCAGCAGCGUUCACGUCGCGGCCCCUGUCAAAUUCUGGUGAAUCUGCGAAUUCUGCUGU [A15C G41A] the figure was 0.289; with GGGGGCCACAGCAGCAGCGUUCACGUCGCGGCCCCUGUCACAUUCUGGUGAAUCUGCGAAUUCUGCUGU [A15C G41C], 0.215.
GGGGGCCACAGCAGCAGCGUUCACGUCGCGGCCCCUGUCAGAUUCUGGUGAAUCUGCAAAUUCUGCUGU [A15C G58A]: the self-cleavage is 0.809.
With GGGGGCCACAGCAGCAGCGUUCACGUCGCGGCCCCUGUCAGAUUCUGGUGAAUCUGCCAAUUCUGCUGU [A15C G58C] the figure was 0.84.
Turning to GGGGGCCACAGCAGCAGCGUUCACGUCGCGGCCCCUGUCAGAUUCUGGUGAAUCUUCGAAUUCUGCUGU [A15C G56U], the self-cleavage came to 0.626.
In the case of GGGGGCCACAGCAGCAGCGUUCACGUCGCGGCCCCUGUCAGAUUCUGGUGAAUCUACGAAUUCUGCUGU [A15C G56A] it was 0.651.
Consider GGGGGCCACAGCAGCAGCGUUCACGUCGCGGCCCCUGUCAGAUUCUGGUGAAUGUGCGAAUUCUGCUGU [A15C C54G], for which the self-cleavage was 0.567.
In the case of GGGGGCCACAGCAGCAGCGUUCACGUCGCGGCCCCUGUCAGAUUCUGGUGAAUUUGCGAAUUCUGCUGU [A15C C54U], the self-cleavage amounted to 0.865.
In the case of GGGGGCCACAGCAGCAGCGUUCACGUCGCGGCCCCUGUCAGAUUCUGGUGAAUAUGCGAAUUCUGCUGU [A15C C54A] it was 0.447; in that of GGGGGCCACAGCAGCAACGUUCACGUCGCGGCCCCUGUCAGAUUCUGGUGAAUCUGCGAAUUCUGCUGU [A15C G17A], 0.136.
In the case of GGGGGCCACAGCAGCAUCGUUCACGUCGCGGCCCCUGUCAGAUUCUGGUGAAUCUGCGAAUUCUGCUGU [A15C G17U] it was 0.25; in that of GGGGGCCACAGCAGCAGCGUUCACGUCGCGCCCCCUGUCAGAUUCUGGUGAAUCUGCGAAUUCUGCUGU [A15C G31C], 0.27.
In the case of GGGGGCCACAGCAGCAGCGUUCACGUCGCGACCCCUGUCAGAUUCUGGUGAAUCUGCGAAUUCUGCUGU [A15C G31A] it was 0.456; in that of GGGGGCCACAGCAGCAGCGUUCACGUCGCGGCCCCUGUCAGAUUCUGGUGAAUCUGCGAAUUCUGCUUU [A15C G68U], 0.969.
In the case of GGGGGCCACAGCAGCAGCGUUCACGUCGCGGCCCCUGUCAGAUUCUGGUGAAUCUGCGAAUUCUGCUCU [A15C G68C], the self-cleavage worked out at 0.917.
With GGGGGCCACAGCAGCAGCGUUCACGUCGCGGCCCCUGUCAGAUUCUUGUGAAUCUGCGAAUUCUGCUGU [A15C G47U] the figure was 0.916; with GGGGGCCACAGCAGCAGCGUUCACGUCGCAGCCCCUGUCAGAUUCUGGUGAAUCUGCGAAUUCUGCUGU [A15C G30A], 0.392.
As for GGGGGCCACAGCAGCAGCGUUCACGUCGCUGCCCCUGUCAGAUUCUGGUGAAUCUGCGAAUUCUGCUGU [A15C G30U], the self-cleavage amounted to 0.0766.
In the case of GGGGGCCACAGCAGCAGCGAUCACGUCGCGGCCCCUGUCAGAUUCUGGUGAAUCUGCGAAUUCUGCUGU [A15C U20A] it was 0.125.
In the case of GGGGGCCACAGCAGCAGCGCUCACGUCGCGGCCCCUGUCAGAUUCUGGUGAAUCUGCGAAUUCUGCUGU [A15C U20C] it was 0.284.
